This is an account of results in PMC5270673, “Altered stoichiometry and nuclear delocalization of NonO and PSF promote cellular senescence” (Aging (Albany NY), 2016).

Data set [1] concerns the molecule itself. Nature of the data set: SEC; Superose 6 FPLC of nuclear and cytoplasmic extracts of BJ fibroblasts, untransfected or overexpressing NonO, day 8; 400 mM KCl, 20 mM HEPES pH 7.9, 1.0 mM MgCl2, 0.5 mM EGTA, 10% glycerol; fractions blotted with anti-NonO and anti-PSF; masses estimated from marker proteins.
Data set [2] addresses T1, Splicing Factor Proline/Glutamine Rich, PSF/SFPQ (human (endogenous in BJ fibroblasts)), P23246.
T1 chain: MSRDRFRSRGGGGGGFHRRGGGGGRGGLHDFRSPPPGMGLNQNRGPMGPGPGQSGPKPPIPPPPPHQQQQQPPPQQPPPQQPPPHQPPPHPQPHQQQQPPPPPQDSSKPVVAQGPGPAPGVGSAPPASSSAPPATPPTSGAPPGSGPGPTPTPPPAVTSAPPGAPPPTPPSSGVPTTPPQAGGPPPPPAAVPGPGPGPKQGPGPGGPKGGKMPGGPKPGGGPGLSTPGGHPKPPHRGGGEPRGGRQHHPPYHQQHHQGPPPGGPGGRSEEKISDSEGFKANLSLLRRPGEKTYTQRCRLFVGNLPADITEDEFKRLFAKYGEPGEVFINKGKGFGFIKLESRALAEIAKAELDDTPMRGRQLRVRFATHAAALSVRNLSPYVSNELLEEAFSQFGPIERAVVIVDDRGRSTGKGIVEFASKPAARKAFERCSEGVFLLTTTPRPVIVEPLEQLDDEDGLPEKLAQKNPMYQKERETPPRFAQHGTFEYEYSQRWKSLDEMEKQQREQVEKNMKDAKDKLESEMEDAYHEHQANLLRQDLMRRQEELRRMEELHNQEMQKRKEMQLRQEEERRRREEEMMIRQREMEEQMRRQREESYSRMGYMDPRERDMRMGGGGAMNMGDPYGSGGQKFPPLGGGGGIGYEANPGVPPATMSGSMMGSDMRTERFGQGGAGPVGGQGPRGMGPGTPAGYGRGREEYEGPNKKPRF
The data set is described as above. Particulars: remark: other sources report otherwise.

B1: NonO overexpressed in BJ fibroblasts (natural protein, UniProt Q99K48 1-473, looked up)
chain: MQSNKAFNLEKQNHTPRKHHQHHHQQHHQQQQQQQQQQPPPPIPANGQQASSQNEGLTIDLKNFRKPGEKTFTQRSRLFVGNLPPDITEEEMRKLFEKYGKAGEVFIHKDKGFGFIRLETRTLAEIAKVELDNMPLRGKQLRVRFACHSASLTVRNLPQYVSNELLEEAFSVFGQVERAVVIVDDRGRPSGKGIVEFSGKPAARKALDRCSEGSFLLTTFPRPVTVEPMDQLDDEEGLPEKLVIKNQQFHKEREQPPRFAQPGSFEYEYAMRWKALIEMEKQQQDQVDRNIKEAREKLEMEMEAARHEHQVMLMRQDLMRRQEELRRMEELHNQEVQKRKQLELRQEEERRRREEEMRRQQEEMMRRQQEGFKGTFPDAREQEIRMGQMAMGGAMGINNRGAMPPAPVPPGTPAPPGPATMMPDGTLGLTPPTTERFGQAATMEGIGAIGGTPPAFNRPAPGAEFAPNKRRRY
notes: NonO cDNA expressed from a transfected plasmid; Its NonO fragments end at residue 473; The tag is therefore unknown; also called NonO OE; full-length NonO; source: BJ human diploid fibroblasts, stably transfected, nuclear or cytoplasmic extract
The stoichiometry N is the number of molecules, sites or subunits per partner or assembly. B1: in data set [1], the “stoichiometry N” value is 2.

B2: Splicing Factor Proline/Glutamine Rich, PSF/SFPQ, P23246 1-707 (natural protein)
chain: T1 chain
As for B2, the stoichiometry N in data set [2] is 2.
